Tested on: Lenti-X 293T cells
Experiment: YFP fluorescence quenching anion reporter plate reader assay of engineered receptors stimulated with acetylcholine or a non-native ligand
Type: cell-based
Settings: for percent quench of YFP fluorescence, 10 uM ach: acetylcholine 10 uM; for percent quench of YFP fluorescence, 100 uM ach: acetylcholine 100 uM; for percent quench of YFP fluorescence, 1 mM ach: acetylcholine 1 mM; for percent quench of YFP fluorescence, 3 mM ach: acetylcholine 3 mM
From the text: To screen these mutant LGICs for those having novel response profiles to ligands, an anion reporter assay was developed to assess the function of the LGICs in a high throughput format. In this assay, cells expressing a YFP reporter whose fluorescence is quenched in the presence of anion are transfected with DNA encoding the channel of interest. Upon exposure to ligand, channels that are activated will flux anion, resulting in a dose-dependent quench of the YFP that can be detected on a plate reader. The greater the quench signal (i.e., the more positive the value), the higher the ligand activity on the receptor is.
Lenti-X 293T cells (LX293T, Clontech) were maintained in DMEM containing 10% FBS and 1% penicillin/streptomycin (Invitrogen). […] Two days before assay, cells were split at a density of 20,000 cells/well in a 96-well tissue culture plate coated with poly-d lysine (Thermo Scientific). The next day, the cells were transiently transfected with 0.1 μg of DNA per well using standard Fugene protocol (Promega). On the day of assay, cells were washed 2 times in 1× extracellular solution (1×ECS: 140 mM NaCl, 5 mM KCl, 1 mM MgCl2, 2 mM CaCl2), 10 mM HEPES, 10 mM glucose, pH 7.2, mOsms 300). After the last wash, 100 μL of 1×ECS was added to the wells and the plate was incubated at 37° C. for 30 min. While incubating the plate, the drugs were diluted to a 2× concentration in 1×ECS-NaI (same components as 1×ECS except the 140 mM NaCl was replaced by 140 mM NaI). The plates were then read on a Flexstation3 (Molecular Devices). Each well, 8 wells at a time, of the plate is read for 2 min using a Flexstation3 (Molecular Devices) as follows: 1) a baseline YFP fluorescence is read for 17 sec, 2) 100 μL of ligand is added, and 3) the changes in YFP fluorescence are then measured every 1.3 sec for 1 minute and 43 seconds. The percent quench is calculated from the average fluorescence of the last 10 seconds of the read divided by the baseline average of the first 15 seconds prior to the ligand addition.
FIGS. 1A-1J provide heat maps of the percent quench of YFP fluorescence following stimulation by various doses of either acetylcholine or the non-native ligand as indicated in the Figures. CODA71 (SEQ ID NO: 33) was used as a control, and CODA75 (SEQ ID NO: 29, a non-responding chimeric engineered receptor) was used as the negative control. Quenching of the fluorescence signal, as indicated by blue shaded cells, indicate the level of engineered receptor activation by the non-native ligand at that concentration.

B1: CODA283: engineered chimeric LGIC receptor, Y115E_N379K in SEQ ID NO: 33 (protein)
chain: MRCSPGGVWLALAASLLHVSLQGEFQRKLYKELVKNYNPLERPVANDSQPLTVYFSLSLLQIMDVDEKNQVLTTNIWLQMSWTDHYLQWNVSEYPGVKTVRFPDGQIWKPDILLENSADERFDATFHTNVLVNSSGHCQYLPPGIFKSSCPMDLKNFPMDVQTCKLKFGSWSYGGWSLDLQMQEADISGYIPNGEWDLVGIPGKRSERFYECCKEPYPDVTFTVTMRRRMGYYLIQMYIPSLLIVILSWISFWINMDAAPARVGLGITTVLTMTTQSSGSRASLPKVSYVKAIDIWMAVCLLFVFSALLEYAAVNFVSRQHKELLRFRRKRRHHKSPMLNLFQEDEAGEGRFNFSAYGMGPACLQAKDGISVKGANNSKTTNPPPAPSKSPEEMRKLFIQRAKKIDKISRIGFPMAFLIFNMFYWIIYKIVRREDVHNQ
modifications: synthetic sequence of chimeric LGIC
1 nM CNL001, first column
  YFP fluorescence quenching using CNL001: −0.713%
1 nM CNL001, second column
  YFP fluorescence quenching using CNL001: −0.621%
1 nM brd
  YFP fluorescence quenching using TC-5619/Bradanicline: 0.59%
3 nM brd
  YFP fluorescence quenching using TC-5619/Bradanicline: −6.41%
10 nM CNL001, first column
  YFP fluorescence quenching using CNL001: 7.739%
10 nM CNL001, second column
  YFP fluorescence quenching using CNL001: 15.277%
10 nM brd
  YFP fluorescence quenching using TC-5619/Bradanicline: −1.58%
30 nM brd
  YFP fluorescence quenching using TC-5619/Bradanicline: −14.24%
30 nM fac
  YFP fluorescence quenching using Facinicline: 6.39
50 nM CNL001, first column
  YFP fluorescence quenching using CNL001: 19.489%
50 nM CNL001, second column
  YFP fluorescence quenching using CNL001: 33.703%
50 nM abt
  YFP fluorescence quenching using ABT-126: −22.65%
100 nM CNL001, first column
  YFP fluorescence quenching using CNL001: 56.886%
100 nM CNL001, second column
  YFP fluorescence quenching using CNL001: 60.171%
100 nM CNL002
  YFP fluorescence quenching using CNL002: −5.81%
100 nM abt
  YFP fluorescence quenching using ABT-126: −20.55%
100 nM azd0328
  YFP fluorescence quenching using AZD-0328: −2.1%
100 nM brd
  YFP fluorescence quenching using TC-5619/Bradanicline: 33.36%
300 nM abt
  YFP fluorescence quenching using ABT-126: −12.93%
300 nM azd0328
  YFP fluorescence quenching using AZD-0328: 38.2%
300 nM brd
  YFP fluorescence quenching using TC-5619/Bradanicline: 43.81%
300 nM fac
  YFP fluorescence quenching using Facinicline: 78.36
1 uM CNL001, first column
  YFP fluorescence quenching using CNL001: 69.836%
1 uM CNL001, second column
  YFP fluorescence quenching using CNL001: 73.855%
1 uM CNL002
  YFP fluorescence quenching using CNL002: 9.69%
1 uM abt
  YFP fluorescence quenching using ABT-126: 1.71%
1 uM brd
  YFP fluorescence quenching using TC-5619/Bradanicline: 75.39%
1 uM tc6987
  YFP fluorescence quenching using TC-6987: −9.54
10 uM fac
  YFP fluorescence quenching using Facinicline: 81.93
10 uM tc6987
  YFP fluorescence quenching using TC-6987: −7.06
30 uM CNL002
  YFP fluorescence quenching using CNL002: −12.85%
30 uM azd0328
  YFP fluorescence quenching using AZD-0328: 79.44%
30 uM fac
  YFP fluorescence quenching using Facinicline: 78.63
500 uM tc6987
  YFP fluorescence quenching using TC-6987: −15.15
  percent quench of YFP fluorescence, 10 uM ach: −6.16%
  percent quench of YFP fluorescence, 100 uM ach: −11.12%
  percent quench of YFP fluorescence, 1 mM ach: −2.74%
  percent quench of YFP fluorescence, 3 mM ach: 53.61%

B2: CODA325: engineered chimeric LGIC receptor, L131G in SEQ ID NO: 33 (protein)
chain: MRCSPGGVWLALAASLLHVSLQGEFQRKLYKELVKNYNPLERPVANDSQPLTVYFSLSLLQIMDVDEKNQVLTTNIWLQMSWTDHYLQWNVSEYPGVKTVRFPDGQIWKPDILLYNSADERFDATFHTNVGVNSSGHCQYLPPGIFKSSCPMDLKNFPMDVQTCKLKFGSWSYGGWSLDLQMQEADISGYIPNGEWDLVGIPGKRSERFYECCKEPYPDVTFTVTMRRRMGYYLIQMYIPSLLIVILSWISFWINMDAAPARVGLGITTVLTMTTQSSGSRASLPKVSYVKAIDIWMAVCLLFVFSALLEYAAVNFVSRQHKELLRFRRKRRHHKSPMLNLFQEDEAGEGRFNFSAYGMGPACLQAKDGISVKGANNSNTTNPPPAPSKSPEEMRKLFIQRAKKIDKISRIGFPMAFLIFNMFYWIIYKIVRREDVHNQ
modifications: synthetic sequence of chimeric LGIC
1 nM CNL001, first column
  YFP fluorescence quenching using CNL001: 74.429%
1 nM CNL001, second column
  YFP fluorescence quenching using CNL001: 78.715%
3 nM brd
  YFP fluorescence quenching using TC-5619/Bradanicline: 68.45%
3 nM var, first column
  YFP fluorescence quenching using Varenicline: −12.241
3 nM var, second column
  YFP fluorescence quenching using Varenicline: −9.415
10 nM CNL001, first column
  YFP fluorescence quenching using CNL001: 79.033%
10 nM CNL001, second column
  YFP fluorescence quenching using CNL001: 79.322%
30 nM brd
  YFP fluorescence quenching using TC-5619/Bradanicline: 76.95%
30 nM fac
  YFP fluorescence quenching using Facinicline: 75.75
30 nM var, first column
  YFP fluorescence quenching using Varenicline: 75.334
30 nM var, second column
  YFP fluorescence quenching using Varenicline: 72.278
50 nM CNL001, first column
  YFP fluorescence quenching using CNL001: 79.966%
50 nM CNL001, second column
  YFP fluorescence quenching using CNL001: 80.091%
50 nM abt
  YFP fluorescence quenching using ABT-126: −17.39%
100 nM CNL001, first column
  YFP fluorescence quenching using CNL001: 81%
100 nM CNL001, second column
  YFP fluorescence quenching using CNL001: 79.701%
100 nM CNL002
  YFP fluorescence quenching using CNL002: 45.62%
100 nM abt
  YFP fluorescence quenching using ABT-126: 6.89%
100 nM azd0328
  YFP fluorescence quenching using AZD-0328: 79.75%
300 nM abt
  YFP fluorescence quenching using ABT-126: 38.65%
300 nM azd0328
  YFP fluorescence quenching using AZD-0328: 80.62%
300 nM brd
  YFP fluorescence quenching using TC-5619/Bradanicline: 77.1%
300 nM fac
  YFP fluorescence quenching using Facinicline: 78.01
300 nM var, first column
  YFP fluorescence quenching using Varenicline: 78.305
300 nM var, second column
  YFP fluorescence quenching using Varenicline: 77.83
500 nM var, first column
  YFP fluorescence quenching using Varenicline: 75.936
500 nM var, second column
  YFP fluorescence quenching using Varenicline: 76.788
1 uM CNL001, first column
  YFP fluorescence quenching using CNL001: 79.289%
1 uM CNL001, second column
  YFP fluorescence quenching using CNL001: 80.581%
1 uM CNL002
  YFP fluorescence quenching using CNL002: 74.72%
1 uM abt
  YFP fluorescence quenching using ABT-126: 45.82%
1 uM tc6987
  YFP fluorescence quenching using TC-6987: 64.59
1 uM var, first column
  YFP fluorescence quenching using Varenicline: 77.805
1 uM var, second column
  YFP fluorescence quenching using Varenicline: 77.352
10 uM tc6987
  YFP fluorescence quenching using TC-6987: 76.28
30 uM CNL002
  YFP fluorescence quenching using CNL002: 77.4%
30 uM azd0328
  YFP fluorescence quenching using AZD-0328: 80.19%
30 uM fac
  YFP fluorescence quenching using Facinicline: 76.61
500 uM tc6987
  YFP fluorescence quenching using TC-6987: 70.95
TC-6683 30 nM
  percent quench of YFP fluorescence, 30 nM TC-6683: −21.27%
TC-6683 300 nM
  percent quench of YFP fluorescence, 300 nM TC-6683: −18.33%
TC-6683 3 uM
  percent quench of YFP fluorescence, 3 uM TC-6683: −7.03%
TC-6683 30 uM
  percent quench of YFP fluorescence, 30 uM TC-6683: 56.84%
TC-6683 100 uM
  percent quench of YFP fluorescence, 100 uM TC-6683: 64.51%
  percent quench of YFP fluorescence, 10 uM ach: 5.66%
  percent quench of YFP fluorescence, 100 uM ach: 74.07%
  percent quench of YFP fluorescence, 1 mM ach: 62.65%
  percent quench of YFP fluorescence, 3 mM ach: 69.49%
